Source: US20140120095A1 (Boehringer Ingelheim, published 2014)

B1: VEGFDLLBII015 (bispecific antibody)
chain: EVQLVESGGGLVQTGDSLRLSCEVSGRTFSSYSMGWFRQAQGKEREFVVAISKGGYKYDSVSLEGRFTISKDNAKNTVYLQINSLKPEDTAVYYCASSRAYGSSRLRLADTYEYWGQGTQVTVSSGGGGSGGGGSGGGGCGGGGSGGGGSGGGGSGGGGSEVQLVESGGGLVQPGGSLRLSCVASGIRFMSMAWYRQAPGKHRELVARISSGGTTAYVDSVKGRFTISRDNSKNTVYLQMNSLKAEDTAVYYCNTFSSRPNPWGAGTQVTVSSGGGGSGGGGSGGGGSGGGGSGGGGSGGGGSGGGGSEVQLVESGGGLVQAGGSLRLSCAASGRTFSSYAMAWYRQAPGKEREYVAAIRWSGGTAYYADSVQGRFTISRDNAKNTVYLQMNSLKPEDTAVYYCANRAPDTRLAPYEYDHWGQGTQVTVSS
modifications: PEGylated at the Cys at position 15 of the 35 Gly-Ser linker
notes: VEGFBII23B04 - 35GS(Cys15) - VEGFBII5B05 - 35GS - DLLBII129B05
B2: VEGFBII119G11 (VHH)
VHH: EVQLVESGGGLVQPGGSLRLSCAASGIRFMSMAWYRQAPGKQRELVARISSGGTTAYADSVKGRFTISRDNSKNTVYLQMNSLRAEDTAVYYCNTFSSRPNPWGQGTLVTVSS
notes: Humanization variant of VEGFBII5B05; tested as periplasmic extract
B3: VEGFBII120E10 (VHH)
VHH: EVQLVESGGGLVQPGGSLRLSCVASGIRFISMAWYRQAPGKHRELVARISSGGTTAYVDSVKGRFTISRDNSKNTVYLQMNSLKAEDTAVYYCNTFSSRPNPWGAGTQVTVSS
notes: M30I variant of VEGFBII5B05; tested as periplasmic extract
B4: VEGFDLLBII012 (bispecific antibody)
chain: EVQLVESGGGLVQTGDSLRLSCEVSGRTFSSYSMGWFRQAQGKEREFVVAISKGGYKYDSVSLEGRFTISKDNAKNTVYLQINSLKPEDTAVYYCASSRAYGSSRLRLADTYEYWGQGTQVTVSSGGGGSGGGGSGGGGCGGGGSGGGGSGGGGSGGGGSEVQLVESGGGLVQPGGSLRLSCAASGFTFGSYDMSWVRRSPGKGPEWVSSINSGGGSTYYADYVKGRFTISRDNAKNTLYLQMNSLKPEDTAVYYCAADRYIWARQGEYWGAYEYDYWGQGTQVTVSS
modifications: PEGylated at the Cys at position 15 of the 35 Gly-Ser linker
notes: VEGFBII23B04 - 35GS(Cys15) - DLLBII136C07
B5: DLLBII136C07 (VHH, not shown: small tags and cut ends)
VHH: EVQLVESGGGLVQPGGSLRLSCAASGFTFGSYDMSWVRRSPGKGPEWVSSINSGGGSTYYADYVKGRFTISRDNAKNTLYLQMNSLKPEDTAVYYCAADRYIWARQGEYWGAYEYDYWGQGTQVTVSS
B6: VEGFDLLBII013 (bispecific antibody)
chain: EVQLVESGGGLVQTGDSLRLSCEVSGRTFSSYSMGWFRQAQGKEREFVVAISKGGYKYDSVSLEGRFTISKDNAKNTVYLQINSLKPEDTAVYYCASSRAYGSSRLRLADTYEYWGQGTQVTVSSGGGGSGGGGSGGGGCGGGGSGGGGSGGGGSGGGGSEVQLVESGGGLVQAGGSLRLSCAASGRTFSSYAMAWYRQAPGKEREYVAAIRWSGGTAYYADSVQGRFTISRDNAKNTVYLQMNSLKPEDTAVYYCANRAPDTRLAPYEYDHWGQGTQVTVSS
modifications: PEGylated at the Cys at position 15 of the 35 Gly-Ser linker
notes: VEGFBII23B04 - 35GS(Cys15) - DLLBII129B05
B7: VEGFDLLBII014 (bispecific antibody)
chain: EVQLVESGGGLVQTGDSLRLSCEVSGRTFSSYSMGWFRQAQGKEREFVVAISKGGYKYDSVSLEGRFTISKDNAKNTVYLQINSLKPEDTAVYYCASSRAYGSSRLRLADTYEYWGQGTQVTVSSGGGGSGGGSEVQLVESGGGLVQPGGSLRLSCVASGIRFMSMAWYRQAPGKHRELVARISSGGTTAYVDSVKGRFTISRDNSKNTVYLQMNSLKAEDTAVYYCNTFSSRPNPWGAGTQVTVSSGGGGSGGGGSGGGGCGGGGSGGGGSGGGGSGGGGSEVQLVESGGGLVQAGGSLRLSCAASGRTFSSYAMAWYRQAPGKEREYVAAIRWSGGTAYYADSVQGRFTISRDNAKNTVYLQMNSLKPEDTAVYYCANRAPDTRLAPYEYDHWGQGTQVTVSS
modifications: PEGylated at the Cys at position 15 of the 35 Gly-Ser linker
notes: VEGFBII23B04 - 9GS - VEGFBII5B05 - 35GS(Cys15) - DLLBII129B05
B8: DLLBII129B05 (VHH, not shown: small tags and cut ends)
VHH: EVQLVESGGGLVQAGGSLRLSCAASGRTFSSYAMAWYRQAPGKEREYVAAIRWSGGTAYYADSVQGRFTISRDNAKNTVYLQMNSLKPEDTAVYYCANRAPDTRLAPYEYDHWGQGTQVTVSS
B9: DLLBII017 (VHH, not shown: small tags and cut ends)
VHH: EVQLVESGGGLVQPGGSLRLSCAASGRTFSSYAMAWYRQAPGKEREYVAAIRWSGGTAYYADSVQGRFTISRDNAKNTVYLQMNSLRPEDTAVYYCANRAPDTRLAPYEYDHWGQGTLVTVSS

Legend:
[1] = biological target: T1, mouse DLL4, full length, overexpressed on CHO cells (mouse, UniProt Q9JI71 27-686); experiment: FMAT, hNotch1-Fc on CHO-mDLL4, +25 uM HSA
T1 construct: whole, on cells; also called mDLL4; CHO-mDLL4
T1 sequence (Q9JI71 27-686): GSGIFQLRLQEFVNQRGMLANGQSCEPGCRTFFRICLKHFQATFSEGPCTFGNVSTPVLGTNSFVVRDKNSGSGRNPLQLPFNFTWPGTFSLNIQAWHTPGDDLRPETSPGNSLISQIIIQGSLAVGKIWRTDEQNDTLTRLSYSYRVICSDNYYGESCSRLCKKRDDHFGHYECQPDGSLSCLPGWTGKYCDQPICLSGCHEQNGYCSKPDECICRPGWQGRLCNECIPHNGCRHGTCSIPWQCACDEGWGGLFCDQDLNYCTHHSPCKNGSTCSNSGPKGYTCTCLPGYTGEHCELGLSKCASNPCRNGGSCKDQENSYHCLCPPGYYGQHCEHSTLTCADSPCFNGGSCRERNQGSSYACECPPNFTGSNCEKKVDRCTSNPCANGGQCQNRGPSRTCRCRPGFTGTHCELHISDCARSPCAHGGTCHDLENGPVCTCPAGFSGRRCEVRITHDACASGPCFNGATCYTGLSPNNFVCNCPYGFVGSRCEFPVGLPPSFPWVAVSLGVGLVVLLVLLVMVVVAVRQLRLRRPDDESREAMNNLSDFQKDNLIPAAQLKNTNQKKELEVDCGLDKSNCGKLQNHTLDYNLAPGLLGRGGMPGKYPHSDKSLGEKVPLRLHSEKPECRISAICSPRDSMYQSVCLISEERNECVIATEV

[2] = biological target: T2, recombinant human VEGF165 (human, UniProt P15692-4 27-191, biotinylated in the competition assays); experiment: AlphaScreen, hVEGF165/hVEGFR1-Fc competition, -HSA
T2 construct: Bought protein; also called hVEGF165; rhVEGF165
T2 sequence (P15692 other isoform, or with tags, fused parts or gaps): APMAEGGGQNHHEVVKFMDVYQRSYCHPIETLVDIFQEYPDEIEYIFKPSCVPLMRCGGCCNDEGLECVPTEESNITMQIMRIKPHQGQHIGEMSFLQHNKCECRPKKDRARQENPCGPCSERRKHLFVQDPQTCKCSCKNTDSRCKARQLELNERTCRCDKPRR

[3] = biological target: T3, human DLL4, full length, overexpressed on cells (human, UniProt Q9NR61 27-685); experiment: cell-based or functional assay
[4] = biological target: T2, recombinant human VEGF165; experiment: AlphaScreen, hVEGF165/hVEGFR2-Fc competition, -HSA
[5] = biological target: T2, recombinant human VEGF165; experiment: AlphaScreen, hVEGF165/hVEGFR2-Fc competition, +5 uM HSA
Description: These 2 competition assays are also performed after preincubation of the VHHs with 5 μM human serum albumin.

[6] = biological target: VEGF (used to stimulate HUVEC cells) (UniProt P15692-4 27-191, limits assumed); experiment: cell-based or functional assay
VEGF (used to stimulate HUVEC cells), sequence (P15692 other isoform, or with tags, fused parts or gaps limits assumed): as the sequence (P15692 other isoform, or with tags, fused parts or gaps) above

[7] = biological target: T3, human DLL4, full length, overexpressed …; experiment: FMAT, hNotch1-Fc on CHO-hDLL4, -HSA
[8] = biological target: T1, mouse DLL4, full length, overexpressed …; experiment: FMAT, hNotch1-Fc on CHO-mDLL4, -HSA
[9] = biological target: T3, human DLL4, full length, overexpressed …; experiment: FMAT, hNotch1-Fc on CHO-hDLL4, +25 uM HSA
[10] = biological target: T2, recombinant human VEGF165; experiment: ProteOn off-rate assay, periplasmic extract on coated hVEGF165
Description: One additional variant is constructed in which the potential oxidation site at position M30 (CDR1 region, see FIG. 38 indicated as bold italic residue) is removed by introduction of a M30I mutation. […] Off-rates are calculated and compared to the off-rates of the parental VEGFBII5B05.

[11] = biological target: T4, recombinant human DLL4 (C-terminally His-tagged extracellular domain, R&D Systems) (human, UniProt Q9NR61 25-522, biotinylated in the competition ELISA); experiment: SPR (Biacore), recombinant human DLL4
T4 construct: also called rhDLL4; hDLL4
Description: Kinetic analysis to determine the affinity of the DII4-VHH interaction is performed by Surface Plasmon Resonance (SPR) on a Biacore T100 instrument. […] Purified VHHs or Fab fragment are injected for 2 minutes at different concentrations (between 10 and 300 nM) and allowed to dissociate for 20 min at a flow rate of 45 μl/min. Between sample injections, the surfaces are regenerated with 10 mM glycine pH1.5 and 100 mM HCl. HBS-N (Hepes buffer pH7.4) is used as running buffer. If possible, data are evaluated by fitting a 1:1 interaction model (Langmuir binding) onto the binding curves. The affinity constant KD is calculated from resulting association and dissociation rate constants (kₐ) and […].

[12] = biological target: T5, human DLL4 expressed on cells (CHO-hDLL4; HEK293-hDLL4) (human, UniProt Q9NR61 27-685); experiment: competition FMAT, labelled hNotch1-Fc on CHO-hDLL4 cells
T5 construct: full length human DLL4 overexpressed on CHO cells (FMAT, FACS) or HEK293 cells (reporter assay)

[13] = biological target: T5, human DLL4 expressed on cells …; experiment: cell-based or functional assay

| Binder | % inh [1] [%] | IC50 [1] [nM] | % inh [2] [%] | IC50 [2] [nM] | IC50, DLL4 mediated reporter assay, +HSA [3] [nM] | % inh [4] [%] | IC50 [4] [nM] | % inh [5] [%] | IC50 [5] [nM] | % inhibition, VEGF HUVEC proliferation assay, -HSA [6] [%] | IC50, VEGF HUVEC proliferation assay, -HSA [6] [nM] | % inh [7] [%] | IC50 [7] [nM] | % inh [8] [%] | IC50 [8] [nM] | % inh [9] [%] | IC50 [9] [nM] | further results |
| --- | --- | --- | --- | --- | --- | --- | --- | --- | --- | --- | --- | --- | --- | --- | --- | --- | --- | --- |
| B1 | 100 | 11.2 | 96 | 0.04 | 134 | 100 | 0.016 | 100 | 0.015 | 109 | 0.49 | 100 | 9.5 | 100 | 12.2 | 100 | 10 |  |
| B2 |  |  |  |  |  |  |  |  |  |  |  |  |  |  |  |  |  | binding level (RU) [10]: 234 RU; koff [10]: 0.0775 s⁻¹ |
| B3 |  |  |  |  |  |  |  |  |  |  |  |  |  |  |  |  |  | binding level (RU) [10]: 257 RU; koff [10]: 0.0468 s⁻¹ |
| B4 | 100 | 103 | 60 | 0.27 | 582 | 100 | 0.19 | 100 | 0.22 |  |  | 100 | 44.9 | 100 | 95.3 | 100 | 41.5 |  |
| B5 | 100 | 17.6 |  |  | 103 |  |  |  |  |  |  | 94 | 6.8 | 100 | 16.4 | 94 | 7.1 |  |
| B6 | 100 | 23.8 | 62 | 0.24 | 98.5 | 100 | 0.18 | 100 | 0.17 | 92 | 0.73 | 100 | 12.2 | 100 | 19.3 | 100 | 12.4 |  |
| B7 | 100 | 15.4 | 94 | 0.08 | 122 | 100 | 0.026 | 100 | 0.024 | 98 | 0.49 | 100 | 9.9 | 100 | 15.4 | 100 | 12.3 |  |
| B8 | 100 | 3.7 |  |  | 88 |  |  |  |  |  |  | 90 | 3.2 | 100 | 3 | 90 | 4.3 |  |
| B9 |  |  |  |  |  |  |  |  |  |  |  |  |  |  |  |  |  | Kd [11]: 0.2 nM; koff [11]: 8e-05 s⁻¹; kon [11]: 370000 M⁻¹ s⁻¹; IC50 [12]: 12.1 nM; IC50, DLL4-mediated reporter assay (hDLL4) [13]: 126 nM |
